This is an account of results in patent publication US6808893 (Johns Hopkins, dated 2004).

Data set [1] has as its target T1, myc-tagged full-length GTRAP4-41 (rat, UniProt Q9QWN8 2-2388).
T1 construct: tested from solubilized cell extract; also called myc-tagged GTRAP4-41; not shown: myc tag of the myc-tagged pRK5 vector
The data set is described as follows: co-immunoprecipitation from transfected HEK 293T cells.

The target in data set [2] is T2, GLAST glutamate transporter (rat, UniProt P24942 1-543).
T2 construct: whole, on cells; Native protein in solubilized rat brain
T2 sequence (looked up): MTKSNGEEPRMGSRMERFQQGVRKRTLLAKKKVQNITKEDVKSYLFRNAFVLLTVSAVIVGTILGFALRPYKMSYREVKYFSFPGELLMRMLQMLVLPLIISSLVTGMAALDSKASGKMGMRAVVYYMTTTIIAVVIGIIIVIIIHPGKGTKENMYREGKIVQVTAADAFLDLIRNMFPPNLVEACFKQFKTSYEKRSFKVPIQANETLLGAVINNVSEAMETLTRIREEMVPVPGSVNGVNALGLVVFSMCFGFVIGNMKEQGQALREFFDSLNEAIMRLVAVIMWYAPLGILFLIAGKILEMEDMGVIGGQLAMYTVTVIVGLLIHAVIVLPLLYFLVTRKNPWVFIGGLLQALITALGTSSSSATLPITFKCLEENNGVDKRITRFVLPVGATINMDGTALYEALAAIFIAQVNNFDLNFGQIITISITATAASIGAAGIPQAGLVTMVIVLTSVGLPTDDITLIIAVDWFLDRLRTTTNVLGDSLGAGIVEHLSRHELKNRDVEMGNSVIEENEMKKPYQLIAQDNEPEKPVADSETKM
Put plainly: co-immunoprecipitation from rat brain extract, Western blotting.

For data set [3], the target named is T3, EAAT4, full-length glutamate transporter (rat, UniProt O35921 1-561).
T3 construct: whole, on cells; tested from detergent lysates; also called rEAAT4; rat EAAT4
T3 sequence (looked up): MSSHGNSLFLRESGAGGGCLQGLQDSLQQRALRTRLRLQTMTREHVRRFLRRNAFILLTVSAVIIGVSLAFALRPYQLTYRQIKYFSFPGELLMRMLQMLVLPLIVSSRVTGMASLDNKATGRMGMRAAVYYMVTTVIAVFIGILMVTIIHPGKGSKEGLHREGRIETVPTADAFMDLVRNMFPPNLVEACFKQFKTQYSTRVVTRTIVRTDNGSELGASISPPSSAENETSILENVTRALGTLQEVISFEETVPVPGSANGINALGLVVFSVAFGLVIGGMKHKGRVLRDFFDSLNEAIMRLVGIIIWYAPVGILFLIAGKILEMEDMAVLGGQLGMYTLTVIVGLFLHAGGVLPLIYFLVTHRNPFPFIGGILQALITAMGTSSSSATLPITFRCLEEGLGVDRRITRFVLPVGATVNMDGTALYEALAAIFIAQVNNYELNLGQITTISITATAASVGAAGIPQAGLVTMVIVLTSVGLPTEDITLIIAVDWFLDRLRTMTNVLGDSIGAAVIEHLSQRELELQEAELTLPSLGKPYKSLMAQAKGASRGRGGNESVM
The data set is described as above.

For data set [4], the target named is T4, GLT-1 glutamate transporter (rat, UniProt P31596 1-573).
T4 construct: whole, on cells; Native protein in solubilized rat brain
The data set is described as above.

Data set [5] concerns the molecule itself. The data set is described as follows: immunoblot of tissue homogenates and purified protein.
Data set [6] deals with T5, GST (glutathione S-transferase) alone (UniProt P08515 1-218 = GST).
T5 construct: Control, immobilized on glutathione-Sepharose
Put plainly: cell-free binding to protein immobilized on glutathione-Sepharose. The protocol: The interaction of GTRAP3-18 with EAAC1 was examined using in vitro and in vivo methods. For in vitro cell-free binding, EAAC1 was expressed as a fusion protein with glutathione S-transferase (GST), and GTRAP3-18 was produced and labeled with [^35S]-methionine by in vitro transcription and translation. Purified GST or GST-EAAC 1 fusion proteins immobilized on glutathione-Sepharose were incubated with [^35S]-labeled GTRAP3-18 protein. GTRAP3-18 specifically binds to immobilized GST-EAAC1 but not to GST alone, indicating an in vitro interaction.

The target of data set [7] is T3, EAAT4, full-length glutamate transporter. The data set is described as follows: co-immunoprecipitation from transfected HEK293 cells. The protocol: (§1) Immunoprecipitation experiments were performed to test if EAAC1 and GTRAP3-18 interact in vivo. This was first examined in transfected HEK293 cells using amino-terminus c-myc tagged GTRAP3-18. EAAC1 is co-immunoprecipitated with c-myc-GTRAP3-18 in the cell extract prepared from co-expression cells but not from EAAC1 or c-myc-GTRAP3-18 single expression cells. […] This interaction was specific, since EAAT4, another neuronal glutamate transporter subtype, is not immunoprecipitated with c-myc-GTRAP3-18. Identical results are obtained using COS-7 and C6 glioma cell lines.

Data set [8] has as its target T6, truncated EAAC1 lacking the interacting carboxy-terminal domain (lacking the last 93 amino acids) (UniProt P51907 1-430).
T6 construct: domain: EAAC1 lacking the last 93 amino acids
T6 sequence (looked up): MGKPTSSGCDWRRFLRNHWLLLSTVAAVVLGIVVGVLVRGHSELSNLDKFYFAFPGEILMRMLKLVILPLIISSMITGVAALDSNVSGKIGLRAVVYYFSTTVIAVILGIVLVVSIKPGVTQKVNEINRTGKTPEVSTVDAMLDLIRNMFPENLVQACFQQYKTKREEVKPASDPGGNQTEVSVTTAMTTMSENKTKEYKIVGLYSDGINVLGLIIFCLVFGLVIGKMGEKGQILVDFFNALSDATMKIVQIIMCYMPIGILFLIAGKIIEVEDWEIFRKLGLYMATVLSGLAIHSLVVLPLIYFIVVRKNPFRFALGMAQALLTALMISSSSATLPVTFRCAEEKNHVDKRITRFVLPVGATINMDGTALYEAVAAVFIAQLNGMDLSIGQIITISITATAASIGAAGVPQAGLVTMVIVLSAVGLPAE
The data set is described as above. The protocol: as §1

T5 sequence (P08515 whole entry): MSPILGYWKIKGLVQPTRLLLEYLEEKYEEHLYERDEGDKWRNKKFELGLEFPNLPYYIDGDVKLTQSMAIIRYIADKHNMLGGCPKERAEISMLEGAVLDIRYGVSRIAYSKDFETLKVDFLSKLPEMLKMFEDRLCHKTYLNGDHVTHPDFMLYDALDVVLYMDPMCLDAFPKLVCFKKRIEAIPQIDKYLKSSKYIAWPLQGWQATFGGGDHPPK
T4 sequence (P31596 whole entry): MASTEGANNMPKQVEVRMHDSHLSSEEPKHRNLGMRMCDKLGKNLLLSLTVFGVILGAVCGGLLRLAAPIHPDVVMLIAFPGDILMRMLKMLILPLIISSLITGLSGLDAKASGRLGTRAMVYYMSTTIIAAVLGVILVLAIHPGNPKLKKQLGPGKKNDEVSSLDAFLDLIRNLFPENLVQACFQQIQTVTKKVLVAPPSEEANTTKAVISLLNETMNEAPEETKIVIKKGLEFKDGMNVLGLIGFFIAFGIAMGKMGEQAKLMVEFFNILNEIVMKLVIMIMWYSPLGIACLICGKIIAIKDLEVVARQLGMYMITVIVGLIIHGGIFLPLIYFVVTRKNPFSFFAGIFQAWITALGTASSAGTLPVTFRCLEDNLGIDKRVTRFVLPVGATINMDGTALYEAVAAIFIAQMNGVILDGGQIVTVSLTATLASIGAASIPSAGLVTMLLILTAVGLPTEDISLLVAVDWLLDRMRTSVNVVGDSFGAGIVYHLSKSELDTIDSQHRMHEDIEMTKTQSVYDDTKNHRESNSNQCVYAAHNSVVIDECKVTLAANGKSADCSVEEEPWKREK
T1 sequence (Q9QWN8 other isoform, or with tags, fused parts or gaps): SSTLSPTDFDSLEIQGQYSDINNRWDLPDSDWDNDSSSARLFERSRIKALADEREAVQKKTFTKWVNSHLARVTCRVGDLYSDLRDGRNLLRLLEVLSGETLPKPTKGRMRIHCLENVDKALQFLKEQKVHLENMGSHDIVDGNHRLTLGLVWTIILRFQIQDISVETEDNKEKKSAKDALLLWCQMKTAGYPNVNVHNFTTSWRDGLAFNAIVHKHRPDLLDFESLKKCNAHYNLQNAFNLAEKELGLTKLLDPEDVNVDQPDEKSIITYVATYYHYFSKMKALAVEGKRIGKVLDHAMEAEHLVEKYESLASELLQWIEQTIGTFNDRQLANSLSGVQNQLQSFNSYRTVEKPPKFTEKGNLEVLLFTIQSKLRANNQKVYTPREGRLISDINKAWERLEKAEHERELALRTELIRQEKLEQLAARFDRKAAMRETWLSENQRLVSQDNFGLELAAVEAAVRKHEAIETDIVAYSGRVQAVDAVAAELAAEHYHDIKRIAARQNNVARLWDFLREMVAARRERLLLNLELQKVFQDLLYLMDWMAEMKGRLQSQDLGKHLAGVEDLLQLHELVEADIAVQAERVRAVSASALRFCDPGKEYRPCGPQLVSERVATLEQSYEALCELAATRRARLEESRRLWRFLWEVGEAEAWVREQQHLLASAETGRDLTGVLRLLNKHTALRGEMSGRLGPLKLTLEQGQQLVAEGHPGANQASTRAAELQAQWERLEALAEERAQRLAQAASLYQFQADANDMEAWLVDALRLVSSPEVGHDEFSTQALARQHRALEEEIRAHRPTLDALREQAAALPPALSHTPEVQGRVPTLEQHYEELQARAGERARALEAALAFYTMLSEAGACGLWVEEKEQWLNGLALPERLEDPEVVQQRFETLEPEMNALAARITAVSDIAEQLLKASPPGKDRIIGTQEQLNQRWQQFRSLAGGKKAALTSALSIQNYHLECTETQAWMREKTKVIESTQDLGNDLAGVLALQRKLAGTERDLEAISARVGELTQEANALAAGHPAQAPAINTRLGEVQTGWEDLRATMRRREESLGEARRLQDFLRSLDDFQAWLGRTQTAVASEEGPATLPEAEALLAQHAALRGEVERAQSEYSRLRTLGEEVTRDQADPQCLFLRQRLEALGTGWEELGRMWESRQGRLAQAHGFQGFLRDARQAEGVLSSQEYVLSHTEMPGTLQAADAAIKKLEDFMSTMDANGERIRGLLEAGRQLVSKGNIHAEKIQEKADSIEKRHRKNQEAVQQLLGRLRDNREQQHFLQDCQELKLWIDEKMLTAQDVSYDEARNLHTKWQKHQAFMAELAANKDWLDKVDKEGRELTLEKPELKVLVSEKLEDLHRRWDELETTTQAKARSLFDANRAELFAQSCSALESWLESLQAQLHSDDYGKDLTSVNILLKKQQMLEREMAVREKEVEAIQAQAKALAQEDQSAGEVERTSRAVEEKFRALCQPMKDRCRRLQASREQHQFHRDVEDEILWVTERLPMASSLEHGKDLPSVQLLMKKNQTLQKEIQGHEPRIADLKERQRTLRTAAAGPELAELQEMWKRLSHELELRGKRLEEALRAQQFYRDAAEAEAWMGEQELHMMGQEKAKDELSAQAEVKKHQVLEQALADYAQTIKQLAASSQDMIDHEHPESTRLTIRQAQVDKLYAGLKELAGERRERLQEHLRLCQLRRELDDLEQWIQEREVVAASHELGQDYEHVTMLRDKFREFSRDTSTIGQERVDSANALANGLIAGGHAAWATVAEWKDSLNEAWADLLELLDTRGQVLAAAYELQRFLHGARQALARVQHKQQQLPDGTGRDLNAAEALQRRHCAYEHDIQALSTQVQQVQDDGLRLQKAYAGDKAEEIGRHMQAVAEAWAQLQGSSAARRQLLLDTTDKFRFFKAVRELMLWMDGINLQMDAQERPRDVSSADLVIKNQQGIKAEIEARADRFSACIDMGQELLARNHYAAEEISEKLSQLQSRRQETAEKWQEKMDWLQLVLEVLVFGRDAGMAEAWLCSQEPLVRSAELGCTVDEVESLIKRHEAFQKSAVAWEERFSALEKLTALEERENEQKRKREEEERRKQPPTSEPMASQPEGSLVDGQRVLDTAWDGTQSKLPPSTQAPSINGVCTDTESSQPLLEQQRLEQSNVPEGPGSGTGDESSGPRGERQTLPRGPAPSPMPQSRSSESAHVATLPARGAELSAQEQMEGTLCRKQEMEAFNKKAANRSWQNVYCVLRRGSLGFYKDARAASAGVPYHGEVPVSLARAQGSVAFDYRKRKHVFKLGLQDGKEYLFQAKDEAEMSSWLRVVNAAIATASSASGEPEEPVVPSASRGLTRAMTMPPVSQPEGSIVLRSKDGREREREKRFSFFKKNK

B1: myc-tagged full-length GTRAP4-48 (other)
chain: MSIRLPHSIDRSASKKQSHLSSPIASWLSSLSSLGDSTPERTSPSHHRQPSDTSETTAGLVQRCVIIQKDQHGFGFTVSGDRIVLVQSVRPGGAAMKAGVKEGDRIIKVNGTMVTNSSHLEVVKLIKSGAYAALTLLGSSPPSVGVSGLQQNPSVAGVLRVNPIIPPPPPPPPLPPPQHITGPKPLQDPEVQKHATQILWNMLRQEEEELQDILPPCGETSQRTCEGRLSVDSQEADSGLDSGTERFPSISESLMNRNSVLSDPGLDSPQTSPVILARVAQHHRRQGSDAALLPLNHQGIDQSPKPLIIGPEEDYDPGYFNNESDIIFQDLEKLKSHPAYLVVFLRYILSQADPGPLLFYLCSEVYQQTNPKDSRSLGKDIWNIFLEKNAPLRVKIPEMLQAEIDLRLRNNEDPRNVLCEAQEAVMLEIQEQINDYRSKRTLGLGSLYGENDLLGLDGDPLRERQMAEKQLAALGDILSKYEEDRSAPMDFAVNTFMSHAGIRLRESRSSCTAEKTQSAPDKDKWLPFFPKTKKQSSNSKKEKDALEDKKRNPILRYIGKPKSSSQSIKPGNVRNIIQHFENSHQYDVPEPGTQRLSTGSFPEDLLESDSSRSEIRLGRSGSLKGREEMKRSRKAENVPRPRSDVDMDAAAEAARLHQSASSSASSLSTRSLENPTPPFTPKMGRRSIESPNLGFCTDVILPHLLEDDLGQLSDLEPEPEVQNWQHTVGKDVVANLTQREIDRQEVINELFVTEASHLRTLRVLDLIFYQRMRKENLMPREELARLFPNLPELIEIHNSWCEAMKKLREEGPIIRDISDPMLARFDGPAREELQQVAAQFCSYQSVALELIRTKQRKESRFQLFMQEAESHPQCRRLQLRDLIVSEMQRLTKYPLLLENIIKHTEGGTSEHEKLCRARDQCREILKFVNEAVKQTENRHRLEGYQKRLDATALERASNPLAAEFKSLDLTTRKMIHEGPLTWRISKDKTLDLQVLLLEDLVVLLQRQEERLLLKCHSKTAVGSSDSKQTFSPVLKLNAVLIRSVATDKRAFFIICTSELGPPQIYELVALTSSDKNIWMELLEEAVQNATKHPGAAPIPIHPSPPGSQEPAYQGSTSSRVEINDSEVYHTEKEPKKLPEGPGPEQRVQDKQLIAQGEPVQEEDEEELRTLPRAPPSLDGENRGIRTRDPVLLALTGPLLMEGLADAALEDVENLRHLILWSLLPGHTVKTQAAGEPEDDLTPTPSVVSITSHPWDPGSPGQAPTISDSTRLARPEGSQPEGEDVAVSSLAHLPPRTRSSGVWDSPELDRNPAAEAASTEPAASYKVVRKVSLLPGGGVGAAKVAGSNAIPDSGQSESELSEVEGGAQATGNCFYVSMPAGPLDSSTEPTGTPPSPSQCHSLPAWPTEPQPYRGVRGGQCSSLVRRDVDVIFHTIEQLTIKLHRLKDMELAHRELLKSLGGESSGGTTPVGSFHTEAARWTDYSLSPPAKEALASDSQNGQEQGSCPEEGSDIALEDSATDTAVSPGP
notes: tested from solubilized cell extract; also called myc-tagged GTRAP4-48; not shown: myc tag of the myc-tagged pRK5 vector
Take B1: the binding result in data set [1] is listed as “no binding”.

B2: GTRAP3-18 (glutamate transporter EAAC1 associated protein), full-length (other)
chain: MDVNLAPLRAWDDFFPGSDRFARPDFRDISKWNNRVVSNLLYYQTNYLVVAAMMISVVGFLSPFNMILGGIIVVLVFTGFVWAAHNKDILRRMKKQYPTAFVMVVMLASYFLISMFGGVMVFVFGITFPLLLMFIHASLRLRNLKNKLENKMEGIGLKKTPMGIILDALEQQEDSINKFADYISKARE
notes: Used for native GTRAP3-18 of rat brain and tissue homogenates, for 'purified GTRAP3-18 protein' and for GTRAP3-18 expressed where no tag is stated; also called rat JWA protein homologue
For the molecule B2, the binding result in data set [2] is “no binding”; in data set [3] it was “no binding”; in data set [4] it was “no binding”; in data set [5] it was “binds”.

B3: [35S]-methionine labelled GTRAP3-18 made by in vitro transcription and translation (other)
chain: MDVNLAPLRAWDDFFPGSDRFARPDFRDISKWNNRVVSNLLYYQTNYLVVAAMMISVVGFLSPFNMILGGIIVVLVFTGFVWAAHNKDILRRMKKQYPTAFVMVVMLASYFLISMFGGVMVFVFGITFPLLLMFIHASLRLRNLKNKLENKMEGIGLKKTPMGIILDALEQQEDSINKFADYISKARE
modifications: labeled with [35S]-methionine
notes: also called [35S]-labeled GTRAP3-18 protein
On to B3, for which, in data set [6], the binding result is given as “no binding”.

B4: amino-terminus c-myc tagged GTRAP3-18 (other)
chain: MDVNLAPLRAWDDFFPGSDRFARPDFRDISKWNNRVVSNLLYYQTNYLVVAAMMISVVGFLSPFNMILGGIIVVLVFTGFVWAAHNKDILRRMKKQYPTAFVMVVMLASYFLISMFGGVMVFVFGITFPLLLMFIHASLRLRNLKNKLENKMEGIGLKKTPMGIILDALEQQEDSINKFADYISKARE
notes: Expressed in HEK293 (also COS-7 and C6 glioma) cells; also called c-myc-GTRAP3-18; not shown: c-myc tag at the amino-terminus
B4: the binding result in data set [7] and in data set [8] was “no binding” throughout.
